The results in this text go back to patent US20100136660A1 (published 2010).

The target in one assay is T1, ovalbumin (UniProt P01012 2-386).
T1 sequence (looked up): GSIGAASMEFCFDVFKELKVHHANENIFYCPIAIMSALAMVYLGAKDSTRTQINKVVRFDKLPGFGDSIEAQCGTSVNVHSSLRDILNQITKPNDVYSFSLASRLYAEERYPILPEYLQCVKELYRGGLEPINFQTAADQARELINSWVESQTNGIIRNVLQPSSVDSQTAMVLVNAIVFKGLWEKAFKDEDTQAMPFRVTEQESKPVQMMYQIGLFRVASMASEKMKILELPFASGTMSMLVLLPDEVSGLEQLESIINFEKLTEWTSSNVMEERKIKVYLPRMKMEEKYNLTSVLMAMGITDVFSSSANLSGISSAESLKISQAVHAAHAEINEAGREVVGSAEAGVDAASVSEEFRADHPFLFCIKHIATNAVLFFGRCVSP
As to the kind of experiment: phage ELISA.

Assay [1] concerns the target T2, bovine thyroglobulin (Sigma) (bovine, UniProt P01267 20-2769).
T2 construct: the same entry is used
As to the kind of experiment: phage ELISA.

T2 sequence (P01267 20-2769 limits assumed): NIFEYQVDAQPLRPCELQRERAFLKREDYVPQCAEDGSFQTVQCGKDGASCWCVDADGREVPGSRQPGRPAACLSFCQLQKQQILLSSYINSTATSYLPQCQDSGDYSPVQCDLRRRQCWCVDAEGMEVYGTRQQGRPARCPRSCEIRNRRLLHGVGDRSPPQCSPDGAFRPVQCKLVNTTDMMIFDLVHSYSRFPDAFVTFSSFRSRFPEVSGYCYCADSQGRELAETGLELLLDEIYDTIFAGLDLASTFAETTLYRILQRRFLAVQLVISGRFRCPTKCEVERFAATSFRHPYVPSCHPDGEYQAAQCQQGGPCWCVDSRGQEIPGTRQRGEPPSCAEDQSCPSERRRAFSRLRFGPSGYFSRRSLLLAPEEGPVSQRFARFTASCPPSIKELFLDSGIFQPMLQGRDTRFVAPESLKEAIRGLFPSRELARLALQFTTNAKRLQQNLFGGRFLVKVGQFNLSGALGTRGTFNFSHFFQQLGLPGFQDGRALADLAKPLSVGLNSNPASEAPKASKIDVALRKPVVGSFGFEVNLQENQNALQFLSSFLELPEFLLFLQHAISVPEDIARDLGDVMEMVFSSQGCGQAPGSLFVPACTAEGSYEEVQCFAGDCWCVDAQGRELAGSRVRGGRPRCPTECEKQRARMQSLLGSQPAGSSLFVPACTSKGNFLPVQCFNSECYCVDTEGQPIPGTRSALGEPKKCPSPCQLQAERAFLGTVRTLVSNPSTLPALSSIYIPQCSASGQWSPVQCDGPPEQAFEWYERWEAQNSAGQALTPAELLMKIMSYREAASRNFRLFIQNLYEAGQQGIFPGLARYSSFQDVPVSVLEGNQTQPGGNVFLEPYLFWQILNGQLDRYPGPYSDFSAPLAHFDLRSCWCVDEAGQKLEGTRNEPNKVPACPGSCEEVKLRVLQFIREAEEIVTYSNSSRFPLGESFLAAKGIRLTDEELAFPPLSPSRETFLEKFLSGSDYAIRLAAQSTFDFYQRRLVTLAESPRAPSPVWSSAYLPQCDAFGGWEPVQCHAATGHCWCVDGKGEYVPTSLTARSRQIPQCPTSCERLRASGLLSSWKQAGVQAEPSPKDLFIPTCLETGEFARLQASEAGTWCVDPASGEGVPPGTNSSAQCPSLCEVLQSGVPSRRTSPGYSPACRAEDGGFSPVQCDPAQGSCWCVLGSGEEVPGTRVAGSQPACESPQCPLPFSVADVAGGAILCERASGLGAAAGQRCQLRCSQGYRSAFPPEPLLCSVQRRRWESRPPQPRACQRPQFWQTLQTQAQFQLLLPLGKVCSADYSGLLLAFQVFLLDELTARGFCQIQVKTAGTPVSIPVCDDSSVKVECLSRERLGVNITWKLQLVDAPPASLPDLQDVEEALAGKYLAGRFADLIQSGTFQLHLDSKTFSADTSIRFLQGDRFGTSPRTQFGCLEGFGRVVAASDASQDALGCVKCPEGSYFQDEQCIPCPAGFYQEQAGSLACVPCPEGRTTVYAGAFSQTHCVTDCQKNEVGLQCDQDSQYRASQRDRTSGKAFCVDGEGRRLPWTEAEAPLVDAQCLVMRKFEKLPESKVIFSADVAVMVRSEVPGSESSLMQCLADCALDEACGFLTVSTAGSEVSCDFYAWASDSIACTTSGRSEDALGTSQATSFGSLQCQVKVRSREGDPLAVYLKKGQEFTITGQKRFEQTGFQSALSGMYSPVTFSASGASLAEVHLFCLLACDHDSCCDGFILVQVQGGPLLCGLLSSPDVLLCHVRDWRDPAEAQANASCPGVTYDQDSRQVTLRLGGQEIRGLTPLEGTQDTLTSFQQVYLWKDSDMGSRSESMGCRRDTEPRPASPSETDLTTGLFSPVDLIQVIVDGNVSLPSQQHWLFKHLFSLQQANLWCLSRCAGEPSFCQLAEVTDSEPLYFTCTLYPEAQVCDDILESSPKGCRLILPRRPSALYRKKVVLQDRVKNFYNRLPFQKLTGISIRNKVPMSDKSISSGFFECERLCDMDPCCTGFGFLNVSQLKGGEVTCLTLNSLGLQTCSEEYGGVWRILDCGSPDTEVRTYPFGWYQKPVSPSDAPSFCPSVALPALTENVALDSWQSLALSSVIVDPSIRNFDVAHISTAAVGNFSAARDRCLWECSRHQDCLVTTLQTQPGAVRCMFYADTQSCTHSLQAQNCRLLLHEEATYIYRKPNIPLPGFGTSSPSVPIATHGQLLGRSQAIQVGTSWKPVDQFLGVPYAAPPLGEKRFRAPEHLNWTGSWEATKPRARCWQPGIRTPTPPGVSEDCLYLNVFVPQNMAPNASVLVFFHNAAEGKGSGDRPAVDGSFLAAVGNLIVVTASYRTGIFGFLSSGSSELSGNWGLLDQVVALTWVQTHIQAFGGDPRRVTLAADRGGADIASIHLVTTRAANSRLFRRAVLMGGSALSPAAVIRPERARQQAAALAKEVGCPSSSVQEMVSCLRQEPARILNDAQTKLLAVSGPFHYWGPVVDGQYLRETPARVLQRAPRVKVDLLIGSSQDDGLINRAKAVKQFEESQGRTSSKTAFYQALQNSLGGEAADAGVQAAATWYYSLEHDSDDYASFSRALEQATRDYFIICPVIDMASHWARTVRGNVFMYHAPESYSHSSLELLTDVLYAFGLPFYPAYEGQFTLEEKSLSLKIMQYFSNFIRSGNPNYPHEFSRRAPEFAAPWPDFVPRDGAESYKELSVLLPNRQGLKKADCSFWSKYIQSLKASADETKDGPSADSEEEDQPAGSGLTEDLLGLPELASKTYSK

B1: human scFv VH3.5/VL3.5 (BSA binder from unimmunized library) (scFv, V domains shown)
VH: QVQLVQSGGGVVQPGRSLRLSCAASGFTFSSYGMHWVRQAPGKGLEWVAVISYDGSNKYYADSVKGRFTISRDNSKNTLYLQMNSLRAEDTAVYYCAKTGYSSGWGYFDYWGQGT
VL: SSELTQDPAVSVALGQTVRITCQGDSLRSYYASWYQQKPGQAPVLVIYGKNNRPSGIPDRFSGSSSGNTASLTITGAQAEDEADYYCNSRDSSGNHVVFGG
As for B1, the binding result (with ovalbumin; in assay [1]) was “no binding (tested: 100 ug/ml coating)” each time.

B2: human scFv VH14.1/VL14.1 (lysozyme binder from unimmunized library) (scFv, V domains shown)
VH: QVQLQESGPGLVKPSETLSLVCTVSGGSLSFSYWGWIRQPPGKGLEWIGYISHRGTDYNSSLQSRVTISADTSKNQFSLKLSSVTAADTAVYYCARSFSNSFFFGYWGQGT
VL: SSELTQDPAVSVAFGQTVRITCQGDSLRSSYASWYQQKPGQAPLLVIYGENSRPSGIPDRFSGSSSGNTASLTITGAQAEDEADYYCNSRDSRGTHLEVFGG
notes: scFv on phage from pHEN1
For B2, the binding result (with ovalbumin; in assay [1]) was “no binding (tested: 100 ug/ml coating)” in each case.

B3: human scFv VH13.1/VL13.1 (lysozyme binder from unimmunized library) (scFv, V domains shown)
VH: QVQLVQSGAEVKKPGQSLMISCQGSGYSFSNYWIGWVRQMPGKGLEWMGIIYPGDSDTRYSPSFQGQVTISADKSISTAYLHWSSLKASDTALYYCARLVGGTPAYWGQGT
VL: HVILTQPASVSGSPGQSITISCTGSSRDVGGYNYVSWYQHHPGKAPKLLISEVTNRPSGVSNRFSGSKSGNTASLTISGLQAEDEADYFCASYTSSKTYVFGG
notes: scFv on phage from pHEN1
Regarding B3, the binding result (with ovalbumin; in assay [1]) was “no binding (tested: 100 ug/ml coating)” each time.
